{"source": "patent US20050059087A1", "about": "“Antibodies directed to the deletion mutants of epidermal growth factor receptor and uses thereof” (priority 2003, published 2005)", "molecules": {"B1": {"name": "139: XenoMax derived human anti-EGFRvIII IgG1, from well 182A5 (antibody, V domains shown)", "VH": "EVQVLESGGGLVQPGGSLRLSCAASGFTFSSYAMSWVRQAPGKGLEWVSAISGSGGSTNYADSVKGRFTISRDNSKNTLYLQMNSLRAEDTAVYYCAGSSGWSEYWGQGTLVTVSS", "VL": "DIQMTQSPSSLSASVGDRVTITCRASQGIRNNLAWYQQKPGKAPKRLIYAASNLQSGVPSRFTGSGSGTEFTLIVSSLQPEDFATYYCLQHHSYPLTSGGGTKVEIK"}, "B2": {"name": "129A7: B-cell culture supernatant well (antibody, V domains shown)", "VH": "QVQLVESGGGVVQPGRSLRLSCAASGFTLSSYGMHWVRQAPGKGLEWVAVMSYDGSKEDYADSVKGRFTISRDNSENTLYLQMNSLRAEDTAVYYCVSEGYCSSRSCYKYYYYGMDVWGQGTTVTVSS", "VL": "DIVMTQSPLSLPVTPGEPASISCRSSQSLLYRNGNNYLDWYLQKPGQSPQLLIYLGSNRASGVPDRFSGSGSGTDFTLNISRVEAEDVGHYYCMQALQTPRTFGQGTKVEIK"}}, "key": {"[1]": {"biological_target": "T1, EGFrVIII peptide sequence (residues 1-20) (Homo sapiens, UniProt P00533, DELINS30-297G)", "T1 construct": "purchased Sigma-Genosys (custom SPOTs array)", "test": "Epitope mapping by SPOTs peptide array and Alanine scanning", "format": "binding", "conditions": "SEQ ID 94/98 = EEKKGNYVVT; 95 = LEEKKGNYVVTD; 96 = YVVTDH; 97 = YVVTD; 99 = GNYVVT", "from_the_text": "The approach that was used was a custom SPOTs peptide array (Sigma Genosys) to study the molecular interaction of the human anti-EGFrVIII antibodies with their peptide epitope. SPOTs technology is based on the solid-phase synthesis of peptides in a format suitable for the systematic analysis of antibody epitopes. Synthesis of custom arrayed oligopeptides is commerically available from Sigma-Genosys. A peptide array of overlapping oligopeptides derived from the amino-acid sequence of the EGFr VIII variant was ordered from Sigma-Genosys.\nA series of nine 12-mer peptides were synthesized as spots on polypropylene membrane sheets. The peptide array spanned residues 1-20 of the EGFrVIII sequence, representing the deletion of amino acids 6-273 in the extracellular domain of wtEGFr, and the generation of a glycine (G) residue at the junction point. Each consecutive peptide was offset by 1 residue from the previous one, yielding a nested, overlapping library of arrayed oligopeptides. The membrane carrying the 9 peptides was reacted with 9 different anti EGFrVIII antibodies (1 μg/ml). The binding of the mAbs to the membrane-bound peptides was assessed by an enzyme-linked immunosorbent assay using HRP-conjugated secondary antibody followed by enhanced chemiluminescence (ECL).\nIn addition, functional epitopes were mapped by combinatorial Alanine scanning. In this process, a combinatorial Alanine-scanning strategy was used to identify amino acids in the EGFrVIII peptide necessary for interaction with anti-EGFRvIII mAbs. To accomplish this, a second set of SPOTs arrays was ordered for Alanine scanning. A panel of variants peptides with alanine substitutions in each of the 12 residues was scanned as above. Spot #1, the unmutated sequence, is a positive control for antibody binding."}, "[2]": {"biological_target": "T2, H1477 (H80-EGFRvIII) cells (Homo sapiens, UniProt P00533, DELINS30-297G)", "T2 construct": "host or cells: H1477 (H80 human glioblastoma line transfected with EGFRvIII)", "test": "FACS staining of H1477 (H80-EGFRvIII) cells", "format": "cell-based", "description": "(§1) The specificity of the purified antibodies was ascertained by performing FACS analysis on a panel of cell lines. H80, a human glioblastoma line, and H1477 (H80-EGFRvIII) that expresses high levels of EGFRvIII, A431, a human epidemoid carcinoma line, and A549, a human lung carcinoma cell line were used as the cell lines. All cell lines were from Dr. Bigner except A431 and A549, which were from ATCC (Rockville, Md., U.S.A.). Cells were incubated on ice with 10 μg/ml of the respective antibody for 30 min., washed in FACS buffer and subsequently incubated with PE-conjugated goat anti-human IgG from Jackson ImmunoResearch (West Grove, Pa., U.S.A.). In FIGS. 9A-9L and 10A-10D, the darkened histogram indicates cells stained with an irrelevant IgG, the outlined, or white histogram, represents the staining of the relevant antibodies."}, "[3]": {"biological_target": "T3, A431 cells (wild type EGFR) (Homo sapiens, UniProt P00533)", "T3 construct": "host or cells: A431", "test": "FACS staining of A431 cells", "format": "cell-based", "description": "as §1"}, "[4]": {"biological_target": "T4, A549 cells (wild type EGFR) (Homo sapiens, UniProt P00533)", "T4 construct": "host or cells: A549", "test": "FACS staining of A549 cells", "format": "cell-based", "description": "as §1"}, "Pep-3 (EGFRvIII epitope)": {"biological_target": "T5, Pep-3 (EGFRvIII epitope) (Homo sapiens, UniProt P00533, DELINS30-297G)", "T5 construct": "purchased Anatech, Inc. (San Jose, Calif.); host or cells: custom synthesis", "test": "Biacore (surface plasmon resonance) binding kinetics to Pep-3", "description": "All antigen and mAb samples for Biacore and KinExA analysis were prepared in vacuum-degassed HBS-P buffer (0.01 M HEPES, 0.15 M NaCl, 0.005% surfactant P-20, Biacore Inc., Uppsala, Sweden) containing 100 μg/mL BSA. […] Research grade CM5 biosensor chips were purchased from Biacore, Inc.\nStandard EDC/NHS and carbohydrate coupling was used to covalently immobilize mAbs to a CM5 sensor chip. To minimize mass transport and crowding mAbs were immobilized at levels that gave a maximum antigen binding response (Rmax) of no more than 50-100 RU. A reference flow cell on each chip was activated and blocked with no mAb immobilization to serve as a control.\nAll Biacore kinetic experiments were conducted at 23° C. […] Antigen samples were randomly injected over the biosensor surface in triplicate at 100 μL/min. Several buffer blanks were injected intermittently over the course of an experiment for double referencing. Each pep-3 concentration and blank were injected for 90 seconds. Dissociation was followed for 13 to 180 minutes.\nAll Biacore sensorgrams were processed using Scrubber software (Version 1.1f, BioLogic Software, Australia). Sensorgrams were first zeroed on the y-axis and then x-aligned at the beginning of the injection. Bulk refractive index changes were removed by subtracting the reference flow cell responses. The average response of all blank injections was subtracted from all analyte and blank sensorgrams to remove systematic artifacts between the experimental and reference flow cells. CLAMP biosensor data analysis software (Version 3.40, BioLogic Software, Australia) was used to determine ka and kd from the processed data sets. Data from all flow cells were globally fit to a 1:1 bimolecular binding model that included a mass transport term. […] The KD was calculated from the quotient kd/ka.\nTwo CM5 sensor chips were used in total to immobilize both mAbs. […] Biacore 2000 optical biosensors were used for all studies.\nNext, pep-3 was flowed across the mAb immobilized biosensor surfaces. The starting concentration of pep-3 was 1.25 μM, which was followed with eight two-fold serial dilutions in randomized triplicate injections. Blank injections were run every sixth sample throughout the injection series for double referencing purposes.\nFinally, the biosensor data was processed with Scrubber and the data was fit to curves utilizing Clamp with a 1:1 interaction model with a term included for mass transport. […]"}, "EGFRvIII-peptide-OVA": {"biological_target": "T6, EGFRvIII-peptide-OVA (Homo sapiens, UniProt P00533, DELINS30-297G)", "T6 construct": "purchased R&D Systems (custom synthesis); host or cells: synthetic peptide", "test": "B-cell culture supernatant ELISA on EGFRvIII-peptide-OVA", "format": "binding", "conditions": "Table 3.8", "description": "B-cells from the above-discussed animals were harvested and cultured. Those secreting EGFRvIII-peptide specific antibodies were isolated as described in Babcook et al., Proc. Natl. Acad. Sci. USA, 93:7843-7848 (1996). ELISA was used to identify primary EGFRvIII-peptide-OVA-specific wells. About 5 million B-cells were cultured from XenoMouse animals in 245 96 well plates at 500 or 150 or 50 cells/well, and were screened on EGFRvIII-peptide-OVA to identify the antigen-specific wells."}, "OVA": {"biological_target": "T7, OVA (Gallus gallus, UniProt P01012)", "T7 sequence (P01012 1-386)": "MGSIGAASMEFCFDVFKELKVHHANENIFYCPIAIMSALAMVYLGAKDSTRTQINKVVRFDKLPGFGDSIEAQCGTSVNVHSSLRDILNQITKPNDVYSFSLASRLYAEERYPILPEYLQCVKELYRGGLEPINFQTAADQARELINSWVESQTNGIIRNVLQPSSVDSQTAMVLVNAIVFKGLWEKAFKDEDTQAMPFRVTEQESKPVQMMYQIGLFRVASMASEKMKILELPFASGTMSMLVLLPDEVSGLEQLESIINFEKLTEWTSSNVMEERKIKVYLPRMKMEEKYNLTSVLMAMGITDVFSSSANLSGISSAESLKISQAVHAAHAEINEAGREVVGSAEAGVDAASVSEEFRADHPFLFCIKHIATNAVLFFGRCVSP", "test": "B-cell culture supernatant control ELISA on OVA", "format": "binding", "conditions": "Table 3.8", "from_the_text": "244 of EGFRvIII-peptide-OVA-Elisa positive wells of OD>0.5 were screened again on EGFRvIII-peptide-OVA and on OVA to confirm that they were EGFRvIII-peptide specific."}, "[5]": {"biological_target": "T8, native form of EGFRvIII stably expressed on NR6 cells (NR6 M cells) (Homo sapiens, UniProt P00533, DELINS30-297G)", "T8 construct": "expressed in transfected cells; host or cells: NR6 murine fibroblasts (NR6 M)", "test": "Native cell binding assay by FMAT, NR6 M cells", "format": "cell-based", "conditions": "total fluorescent intensity"}, "[6]": {"biological_target": "T9, NR6 Wt cells (NR6 cells expressing EGF receptor) (Homo sapiens, UniProt P00533)", "T9 construct": "expressed in transfected cells; host or cells: NR6 murine fibroblasts (NR6 Wt)", "test": "Native cell binding assay by FMAT, NR6 Wt cells", "format": "cell-based", "conditions": "total fluorescent intensity"}, "[7]": {"biological_target": "T10, EGFRvIII receptor on NR6 M cells (Homo sapiens, UniProt P00533, DELINS30-297G)", "T10 construct": "expressed in transfected cells; host or cells: NR6 murine fibroblasts (NR6 M)", "test": "Internalization assay of B-cell culture supernatants (FMAT, glutathione)", "format": "cell-based", "description": "The top 60 native binding B cell culture supernatants were further assayed for their ability to internalize the receptor. NR6 M cells were seeded at 8000 cells/well into 96 well FMAT plates and incubated overnight. Media was removed and 10-15 μl B-Cell culture supernatant in a total volume of 30 μl media, in duplicate was added. Next, 15 μl of secondary antibody (SS Alexa 647 anti-human IgG Fab at 1.5 μg/ml final concentration) was added and the mixture was incubated on ice for 1 hr. An irrelevant B-Cell Culture supernatant was used to see the effect of the culture media. Human anti-EGFRvIII mAb 13.2.1 was used as a positive control starting at 1 μg/ml (final concentration) and negative control was PK 16.3.1 (human anti-KLH IgG2 antibody) at the same concentration. After incubation, the cells were washed with cold PBS, 50 μl media was added to all of the wells, one of the duplicates were incubated at 37° C. for 30 mins while the other duplicate remained on ice. After the incubations media was removed, 100 ul of cold 50 mM glutathione was added to the set incubated at 37° C. and 100 μl of cold media added to the other set, both sets were then left on ice for 1 hr. The cells were then washed with 100 μl cold PBS and then fixed with 1% paraformaldehyde and read in FMAT. The results were expressed as % intermalized, calculated as total fluorescence in the presence of glutathione/total fluorescence in the absence of glutathione X 100."}, "[8]": {"conditions": "parentheses 95% confidence interval"}}}
{"molecule": "B1", "values": [{"measurement": "Epitope mapped by SPOTs", "setting": "[1]", "value": "(SEQ ID NO: 95)"}, {"measurement": "Binding to the EGFRvIII protein on the transfected cell lines", "setting": "[2]; 10 μg/ml", "value": "bind"}, {"measurement": "Selectivity for EGFRvIII expressing cells (H1477) as compared to ABX-EGF", "setting": "[2]; FIGS. 9A-9L, 10A-10D", "value": "superior selectivity"}, {"measurement": "Binding / staining of A431 cells in FACS", "setting": "[3]", "value": "stained"}, {"measurement": "Binding / staining of A549 cells in FACS", "setting": "[4]", "value": "stained"}, {"measurement": "kd", "setting": "Pep-3 (EGFRvIII epitope); curve fitting", "value": "2.981*10^−3"}, {"measurement": "Ka", "setting": "Pep-3 (EGFRvIII epitope); [8]", "value": 10300, "unit": "M⁻¹ s⁻¹"}, {"measurement": "dissociation rate constant (kd, koff)", "setting": "Pep-3 (EGFRvIII epitope); [8]", "value": 0.00298, "unit": "s⁻¹"}]}
{"molecule": "B2", "values": [{"measurement": "1′ VIII-pep-OVA OD", "setting": "EGFRvIII-peptide-OVA", "value": 2.1501}, {"measurement": "2′ VIII-pep-OVA OD", "setting": "EGFRvIII-peptide-OVA", "value": 2.8208}, {"measurement": "OVA OD", "setting": "OVA", "value": 0.1515}, {"measurement": "FMAT native binding to NR6 M cells", "setting": "[5]", "value": 84024}, {"measurement": "FMAT native binding to NR6 Wt cells", "setting": "[6]", "value": 0}, {"measurement": "With glutathione FL1 × count", "setting": "[7]; 37° C. for 30 mins, then 50 mM glutathione", "value": 8708}, {"measurement": "% internalized, (glut+/glut−) × 100", "setting": "[7]; NR6 M cells, 37° C. 30 mins", "value": 31.5, "unit": "%"}, {"measurement": "No glutathione FL1 × count", "setting": "[7]; set kept on ice, no glutathione", "value": 27648}]}
